Sequences and labels used below:
B1: KAT8 regulatory NSL complex subunit 2, residues 28 to 91; numbered along this chain, Q9H9L4 (parent)
chain: CAFTHRPCSHPRLEGQEFCIKHILEDKNAPFKQCSYISTKNGKRCPNAAPKPEKKDGVSFCAEH

± gives the uncertainty stated by the source.

The variants in this series derive from B1. The series can be described thus: abundance fitness (aPCA) (normalised: wild type 0, dead -1); higher = more abundant; growth selection in yeast, the domain comes from the species named. Conditions: Homo sapiens.
For the variant CAFTHRPCSHPRLEGQEFCIKHILEDKNMPFKQCSYISTKNGKRCPNAAPKPEKKDGVSFCAEH, the abundance fitness is -0.204 ± 0.074.

As for CAFTHRPCSHPRLEGQEFCIKHILEDKNAPFKQCSYISTKNGKRCPNAAPKPEKKDGVWFCAEH, the abundance fitness was found to be 0.01 ± 0.47.

For CAFTHRPCSHPRLEGQEFCIKHILEDKNAPFFQCSYISTKNGKRCPNAAPKPEKKDGVSFCAEH, the abundance fitness is -0.305 ± 0.11.

Take CAFTHRPCSHPRLEGQEFCIKHILEDKNAPFKQCSYISTKNGKRCPNQAPKPEKKDGVSFCAEH: the abundance fitness was -0.238 ± 0.058.

For the variant CAFTHRPCSHPRLEGQEFCIKHILEDKNAPFKQCSYISTKNCKRCPNAAPKPEKKDGVSFCAEH, the abundance fitness is -0.105 ± 0.066.

Turning to CAFTHRPCSHPRLEGQEFCIKHILEDKNAPFKQCSYISTKNGKRCPNAAPKPEKKDGNSFCAEH, the abundance fitness was -0.178 ± 0.091.

On to CAFTHRPCSHPRLEGQEFCIKHILEDKNAPFKQCSYISTKNGKRCPNAAPKPEKKDGGSFCAEH, for which the abundance fitness is -0.138 ± 0.1.

Regarding CAFTHRPCSHPRLEGQEFCIKHILEDKNAPFKQCSYISTKNGKRCPNAAPKPEKKDGVSFCAEN, the abundance fitness was -0.441 ± 0.082.

On to CAFTHRPCSHPRCEGQEFCIKHILEDKNAPFKQCSYISTKNGKRCPNAAPKPEKKDGVSFCAEH, for which the abundance fitness is -0.365 ± 0.11.

On to CAFTHRPCSHPRIEGQEFCIKHILEDKNAPFKQCSYISTKNGKRCPNAAPKPEKKDGVSFCAEH, for which the abundance fitness is -0.145 ± 0.13.

Take CAFTHRPCSHPRSEGQEFCIKHILEDKNAPFKQCSYISTKNGKRCPNAAPKPEKKDGVSFCAEH: the abundance fitness was -0.331 ± 0.067.

For the variant CAFTHRPCSHPRLRGQEFCIKHILEDKNAPFKQCSYISTKNGKRCPNAAPKPEKKDGVSFCAEH, the abundance fitness was -0.258 ± 0.052.

With CAFTHRPCSHPRLLGQEFCIKHILEDKNAPFKQCSYISTKNGKRCPNAAPKPEKKDGVSFCAEH, the abundance fitness was -0.12 ± 0.05.

Regarding CAFTHRPCSVPRLEGQEFCIKHILEDKNAPFKQCSYISTKNGKRCPNAAPKPEKKDGVSFCAEH, the abundance fitness was -0.149 ± 0.06.

As to CAFTHRPCSKPRLEGQEFCIKHILEDKNAPFKQCSYISTKNGKRCPNAAPKPEKKDGVSFCAEH, the abundance fitness was -0.113 ± 0.08.

Take CAFTHRPCSWPRLEGQEFCIKHILEDKNAPFKQCSYISTKNGKRCPNAAPKPEKKDGVSFCAEH: the abundance fitness is -0.127 ± 0.068.

As for CAFTHRPCSHPRLEGQEFCIKHILEDKNAPFKQCSYISTKNGKRNPNAAPKPEKKDGVSFCAEH, the abundance fitness is -0.398 ± 0.084.

For CAFTHRPCSHPRLEGQEFCIKHILEDKNAPFKQCSYTSTKNGKRCPNAAPKPEKKDGVSFCAEH, the abundance fitness amounted to 0.038 ± 0.069.

Take CAFTHRPCSHPRLEGQEFCIKHILEDKNAPFKQCSYHSTKNGKRCPNAAPKPEKKDGVSFCAEH: the abundance fitness amounted to 0.039 ± 0.15.

Consider CAFTHRSCSHPRLEGQEFCIKHILEDKNAPFKQCSYISTKNGKRCPNAAPKPEKKDGVSFCAEH, for which the abundance fitness was -0.14 ± 0.053.

For the variant CAFTHRICSHPRLEGQEFCIKHILEDKNAPFKQCSYISTKNGKRCPNAAPKPEKKDGVSFCAEH, the abundance fitness is -0.096 ± 0.081.

Turning to CAFTHRPCSHPRLEGQEFCIKHILEDKNAPFKQCSYISTKNGKRCPNAAPKPEKKDGVSFVAEH, the abundance fitness was -0.426 ± 0.053.

For the variant CAFTHRPCSHPRLEGQEFCIKHILEDKNAPFKQCSYISTKNGKRCPNAAPKPEKKDGVSFYAEH, the abundance fitness was -0.585 ± 0.081.

Consider CAFTHRPCSHPRLEGQEFCIKHILEDKNAPFKQCSYISTKNGKRCPNAAPQPEKKDGVSFCAEH, for which the abundance fitness is -0.217 ± 0.37.

In the case of CAFTHRPCSHPRLEGQEFCIKHILEDKNAPFKQCSYISTKNGKRCPNAAPIPEKKDGVSFCAEH, the abundance fitness is -0.041 ± 0.088.

In the case of CAFTVRPCSHPRLEGQEFCIKHILEDKNAPFKQCSYISTKNGKRCPNAAPKPEKKDGVSFCAEH, the abundance fitness was -0.023 ± 0.059.

On to CAFTFRPCSHPRLEGQEFCIKHILEDKNAPFKQCSYISTKNGKRCPNAAPKPEKKDGVSFCAEH, for which the abundance fitness was -0.096 ± 0.066.

As for CAFTHRPCSHPRLEGQEFCIKHILEDKNAPMKQCSYISTKNGKRCPNAAPKPEKKDGVSFCAEH, the abundance fitness is -0.175 ± 0.057.

With CFFTHRPCSHPRLEGQEFCIKHILEDKNAPFKQCSYISTKNGKRCPNAAPKPEKKDGVSFCAEH, the abundance fitness was -0.513 ± 0.14.

Take CSFTHRPCSHPRLEGQEFCIKHILEDKNAPFKQCSYISTKNGKRCPNAAPKPEKKDGVSFCAEH: the abundance fitness is -0.238 ± 0.088.

Consider CAFTHRPCSHPRLEGQEFCIKHISEDKNAPFKQCSYISTKNGKRCPNAAPKPEKKDGVSFCAEH, for which the abundance fitness is -0.12 ± 0.055.

Regarding CAFTHRPCSHPRLEGQEFCIKHILEDKNAVFKQCSYISTKNGKRCPNAAPKPEKKDGVSFCAEH, the abundance fitness was -0.256 ± 0.068.

Turning to CAFTHRPCSHPRLEGQEFCIKHILEDKNANFKQCSYISTKNGKRCPNAAPKPEKKDGVSFCAEH, the abundance fitness was -0.178 ± 0.11.

As to CAFTHRPCSHPRLEGQEFCIKHILEDKNAGFKQCSYISTKNGKRCPNAAPKPEKKDGVSFCAEH, the abundance fitness is -0.074 ± 0.054.

On to CAFTHRPCSHPRLEGQEFCIQHILEDKNAPFKQCSYISTKNGKRCPNAAPKPEKKDGVSFCAEH, for which the abundance fitness is -0.117 ± 0.16.

In the case of CAFTHRPCRHPRLEGQEFCIKHILEDKNAPFKQCSYISTKNGKRCPNAAPKPEKKDGVSFCAEH, the abundance fitness was -0.186 ± 0.047.

On to CAFTHRPCMHPRLEGQEFCIKHILEDKNAPFKQCSYISTKNGKRCPNAAPKPEKKDGVSFCAEH, for which the abundance fitness is -0.135 ± 0.06.

With CAFTHRPCSHPRLEGQDFCIKHILEDKNAPFKQCSYISTKNGKRCPNAAPKPEKKDGVSFCAEH, the abundance fitness is -0.098 ± 0.11.

For the variant CAFTHRPCSHPRLEGQWFCIKHILEDKNAPFKQCSYISTKNGKRCPNAAPKPEKKDGVSFCAEH, the abundance fitness is -0.26 ± 0.082.

Turning to CAFTHAPCSHPRLEGQEFCIKHILEDKNAPFKQCSYISTKNGKRCPNAAPKPEKKDGVSFCAEH, the abundance fitness is -0.167 ± 0.073.

Consider CAFTHRPDSHPRLEGQEFCIKHILEDKNAPFKQCSYISTKNGKRCPNAAPKPEKKDGVSFCAEH, for which the abundance fitness was -0.646 ± 0.085.

For CAFTHRPCSHPRLEGQEFCIKHILEDINAPFKQCSYISTKNGKRCPNAAPKPEKKDGVSFCAEH, the abundance fitness is -0.091 ± 0.063.

The values are drawn from the Human Domainome abundance scans (Beltran et al. 2025).
